Reference: patent US20240425583A1, “METHODS AND COMPOSITIONS RELATED TO MCL-1 AND BIM HETERODIMER ANTIBODIES” (priority 2021, published 2024)

Key:
[1] = system: MCF-7 breast cancer cells; experiment: IHC staining of FFPE MCF-7 cells, wild-type vs BIM siRNA; format: cell-based, human; details: BIM-siRNA transfected MCF-7 cells vs wild-type, FIG. 3
Excerpt: (§1) The MCL-1/BIM heterodimer antibody (HSMCB) requires BIM to bind in situ. BIM siRNA was used on both MCF-7 and HCC70 cells (far left, and right middle columns, respectively), and the cells were then formalin-fixed and paraffin embedded into a tissue microarray (TMA) block, sectioned and added to glass slides, and stained with HSMCB. IHC images of the wild-type (WT) staining for both MCF-7 and HCC70 cells are shown in the middle-left, and far right columns, respectively. […] The images across the top panel in FIG. 3 are of an HSMCB antibody having CDRs selected from SEQ ID NO: 9, SEQ ID NO: 10, SEQ ID NO: 11, SEQ ID NO: 12, SEQ ID NO: 13, SEQ ID NO: 14, and having a variable heavy chain selected from SEQ ID NO: 15, and a variable light chain selected from SEQ ID NO: 16; and the images across the bottom panel in FIG. 3 are of an HSMCB antibody having CDRs selected from SEQ ID NO: 1, SEQ ID NO: 2, SEQ ID NO: 3, SEQ ID NO: 4, SEQ ID NO: 5, SEQ ID NO: 6, and having a variable heavy chain selected from SEQ ID NO: 7, and a variable light chain selected from SEQ ID NO: 8.
(§2) The experiments of this example show a set of IHC images relating to the application of the Mcl-1/Bim heterodimer antibody (HSMCB) to formalin-fixed paraffin-embedded (FFPE) specimens from MCF-7 breast cancer cells, and HCC70 triple negative breast cancer cells. […]

[2] = system: HCC70 triple negative breast cancer cells; experiment: IHC staining of FFPE HCC70 cells, wild-type vs BIM siRNA; format: cell-based, human; details: for HSMCB IHC signal intensity: BIM-siRNA transfected HCC70 cells vs wild-type, FIG. 3
Excerpt: as §1
In the far left panel. IHC images of the HSMCB antibody are shown for both WT HCC70 cells, and Bim-siRNA transfected HCC70 cells. In the middle panel. IHC images of the HSBXB antibody are shown for both WT HCC70 cells, and Bim-siRNA transfected HCC70 cells. In the far right panel. IHC images are shown of HCC70 cells without application of HSMCB or HSBXB. […] The images in the left column of FIG. 4 are of an HSMCB antibody having CDRs selected from SEQ ID NO: 9, SEQ ID NO: 10, SEQ ID NO: 11, SEQ ID NO: 12, SEQ ID NO: 13, SEQ ID NO: 14, and having a variable heavy chain selected from SEQ ID NO: 15, and a variable light chain selected from SEQ ID NO: 16.
as §2

MCL-1/BIM heterodimer = biological target: T1, MCL-1/BIM heterodimer (Homo sapiens, UniProt Q07820); experiment: ELISA: Mcl-1-GST on glutathione-coated plates with or without Bim-BH3 peptide, detected with HSMCB antibody; format: binding; details: Mcl-1-GST with or without Bim-BH3 peptide, FIG. 1
T1 construct: mutated to delete their transmembrane domains; made in house; host or cells: E. coli BL21 (D3)
Description: Genes encoding human Mcl-1 were cloned and mutated to delete their transmembrane domains. The mutated genes were then linked to a nucleotide sequence encoding Glutathione-S-transferase (GST) and cloned into pGEX 4T-1 to obtain DNA constructs for expressing Mcl-1(Δ)-GST fusion proteins. DNA constructs for expressing full length human Bim, all fused with GST, were prepared by recombinant technology.
The plates were then washed three times with PBS containing 0.05% TWEEN 20™ (PBST) and blocked with 50 μl PBS containing 2.0% bovine serum albumin (BSA) at room temperature for 1 hour. The plates were then washed again three times with PBST. Afterwards, 100 μl of a hybridoma supernatant was added to designated wells. The plates were incubated at room temperature for 1 hour on a shaker apparatus and then washed three times with wash buffer. Next, 50 μl of HRP-conjugated goat anti-mouse IgG Fc (Cappel Laboratories), diluted 1:1000 in assay buffer (0.5% bovine serum albumin, 0.05% % TWEEN 20™, 0.01% Thimersol in PBS), was added to each well. […] 50 μl of […] was added to each well to stop the reaction and absorbance at 450 nm in each well is read in a microliter plate reader. […]

T1 sequence (Q07820 1-327 limits assumed): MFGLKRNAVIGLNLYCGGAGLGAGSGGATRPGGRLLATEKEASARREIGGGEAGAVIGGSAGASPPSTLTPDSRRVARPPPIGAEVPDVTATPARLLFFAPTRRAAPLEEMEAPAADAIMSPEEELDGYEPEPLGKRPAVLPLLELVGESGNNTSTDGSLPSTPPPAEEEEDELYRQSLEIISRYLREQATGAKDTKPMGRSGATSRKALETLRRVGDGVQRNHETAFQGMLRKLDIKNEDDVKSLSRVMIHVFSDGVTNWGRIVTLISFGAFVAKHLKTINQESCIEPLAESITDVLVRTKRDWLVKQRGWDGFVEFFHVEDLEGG
T1 sequence (O43521 146-166 partner limits assumed): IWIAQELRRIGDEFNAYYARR

B1: HSMCB (SEQ ID NO: 15, SEQ ID NO: 16): MCL-1/BIM heterodimer antibody, CDRs SEQ ID NO: 9-14, variable heavy chain SEQ ID NO: 15, variable light chain SEQ ID NO: 16 (antibody, V domains shown)
VH: MDWIWIMLHLLAAATGLQSQVHLQQSGSELRSPGSSVKLSCKDFDSEVFPIAYMSWVRQKPGHGFEWIGDILPSIGRTIYGEKFEDKATLDADTVSNTAYLELNSLTSEDSAIYYCARQDTYYAMDYWGQGTSVTVSS
VL: MHFQVQIFSFLLISASVIMSRGQIVLTQSPAIMSASPGEKVTITCSASSSVSYMHWVQQKPGTSPKLWIYSTSNLASGVPARFRGSGSGTSYSLTISRMEAEDAATYYCQQRSSYPYTFGGGTKLEIK
B1 was tested, and the “HSMCB IHC signal intensity” value [1] was “reduced HSMCB IHC signal intensity”, the “HSMCB IHC signal intensity” value [2] was “reduced HSMCB IHC signal intensity” and the IHC activity ([2]; Bim-siRNA transfected HCC70 cells vs WT, FIG. 4) was “reduced activity”. The “selective binding to the MCL-1/BIM heterodimer versus monomer” value (MCL-1/BIM heterodimer) was “preferentially react with the heterodimer and not to the monomer”.

B2: HSMCB (SEQ ID NO: 7, SEQ ID NO: 8): MCL-1/BIM heterodimer antibody, CDRs SEQ ID NO: 1-6, variable heavy chain SEQ ID NO: 7, variable light chain SEQ ID NO: 8 (antibody, V domains shown)
VH: MNFGLSLIFLVLVLKGVQCEVQLVESGGDLVKPGGSLKLSCAVSGFTFSSYAMSWVRQTPAKRLEWVATISSGGFATYYPDTVKGRFTISRDNAKNTLYLQMSSLRSEDTAMYYCARHGGGSYGWFAYWGQGTLVTVSE
VL: MLSLAPLLSLLLLCVSDSRAETTVTQSPASLSVATGEKVTIRCITSTDIDDDMNWYQQKPGEPPKLLISEGNTLRPGVPSRFSSSGYGTDFVFTIENTLSEDFADYYCLQSDNMPYTFGGGTKLEIK
With B2 the “HSMCB IHC signal intensity” value [1] was “reduced HSMCB IHC signal intensity”, the “HSMCB IHC signal intensity” value [2] was “reduced HSMCB IHC signal intensity” and the “selective binding to the MCL-1/BIM heterodimer versus monomer” value (MCL-1/BIM heterodimer) was “preferentially react with the heterodimer and not to the monomer”.
